{"source": "patent US20170165373A1", "about": "(Amgen, published 2017)", "binders": {"B1": {"name": "11F12 (fully human anti-huBCMA monoclonal antibody) (antibody, V domains shown)", "VH": "QVQLVESGGGVVQPGRSLRLSCAASGFTFSSYGLHWVRQAPGKGLEWVALISYDGSNKYYADSVKGRFTISRDNSKNTLYLQMNSLRAEDTAVYYCWYSSSWTPLDYWGQGTLVTVSS", "VL": "DIQMTQSPSSLSASVGDRVTITCRASQGIRNDLGWYQQKPGKAPKRLIYAASSLQSGVPSRFSGSGSGTEFTLTISSLQPEDFATYYCLQYYSYPLTFGGGTKVEIKR", "notes": "also called Ab-6; 11F12_LC#1"}, "B2": {"name": "1E1 (fully human anti-huBCMA monoclonal antibody) (antibody, IgG1, V domains shown)", "VH": "QVQLVQSGAEVKKPGASVKVSCKASGYTFTGHYIHWVRQAPGQGLEWMGWIYPNSGGTNYAQKFQGRVTMTRDTSISTAYMELSRLRSDDSAVYYCAREGMVTGDYYYYRMDVWGQGTTVIVSS", "VL": "QPVLTQPPSASASLGASVTLTCSLSSGYSNYKVDWYQQRPGKGPRFVMRVGIGGIVGSKGDGIPDRFSVLGSGLNRYLTIKNIQEEDESDFHCGADHGSGNNFVYVFGTGTKVTVLG", "notes": "Recombinantly cloned as IgG1; also called Ab-4"}, "B3": {"name": "2A1 (parental fully human anti-huBCMA monoclonal antibody) (antibody, human IgG1, lambda, V domains shown)", "VH": "EVQLVESGGGLVKPGRSLRLSCTASGFTFGDYALSWFRQAPGKGLEWVGVSRSKAYGGTTDYAASVKGRFTISRDDSKSFAYLQMNSLKTEDTAVYYCCSSGYSSGWTPFDYWGQGTLVTVSS", "VL": "not shown", "notes": "also called Ab-5; Ab-18"}, "B4": {"name": "Ab-1 (2A1CV5) (antibody, human IgG1, lambda, V domains shown)", "VH": "B3 VH with R16G, T23A, F80T, C99A", "VL": "not shown"}, "B5": {"name": "2A1 Covariance 19 (2A1_K14Q + R17G + T24A + G32S + F44V + G56S + D84N + F88T + T98A + C107A + S108K; 2A1_E144K VL) (antibody, human IgG1, lambda, V domains shown)", "VH": "EVQLVESGGGLVQPGGSLRLSCAASGFTFSDYALSWVRQAPGKGLEWVSVSRSKAYGGTTDYAASVKGRFTISRDNSKSTAYLQMNSLKAEDTAVYYCAKSGYSSGWTPFDYWGQGTLVTVSS", "VL": "not shown", "notes": "also called Ab-37"}, "B6": {"name": "2A1CV4 (antibody, human IgG1, lambda, V domains shown)", "VH": "B3 VH with R16G, T23A, C99A", "VL": "not shown", "notes": "IgG1 covariance mutein of 2A1; also called Ab-38; P61055.3"}}, "key": {"[1]": {"molecular_target": "T1, recombinant soluble human BCMA (Biacore analyte of Example 2) (human, UniProt Q02223 1-54)", "T1 construct": "also called rhu BCMA; rsol.hu BCMA", "T1 sequence": "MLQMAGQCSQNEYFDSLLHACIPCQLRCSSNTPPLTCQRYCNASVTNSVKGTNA", "assay": "Biacore 3000 SPR, antibody captured on anti-human IgG, rhu BCMA as analyte, steady state fit to a 1:1 isotherm"}, "[2]": {"molecular_target": "T2, human BCMA (huBCMA), full length, on cells (human, UniProt Q02223 1-184)", "T2 chain": "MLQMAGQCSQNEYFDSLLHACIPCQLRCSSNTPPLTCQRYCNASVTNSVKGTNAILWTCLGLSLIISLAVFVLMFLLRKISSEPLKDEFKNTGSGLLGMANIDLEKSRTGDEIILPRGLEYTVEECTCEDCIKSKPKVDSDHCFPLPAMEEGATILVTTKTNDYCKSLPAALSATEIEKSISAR", "assay": "cell-based or functional assay"}, "[3]": {"molecular_target": "T1, recombinant soluble human BCMA (Biacore …)", "assay": "Biacore 3000 SPR, antibody captured on anti-human IgG, rhu BCMA as analyte, 25 C"}, "[4]": {"molecular_target": "T2, human BCMA (huBCMA), full length, on …", "assay": "FACS equilibrium titration on 293T cells transiently transfected with human BCMA (relative FACS affinity)"}, "[5]": {"molecular_target": "T3, cynomolgus BCMA, on transiently transfected 293T cells (cynomolgus (Macaca fascicularis), UniProt Q02223 1-184 (human entry))", "T3 construct": "also called cyno BCMA", "T3 sequence (Q02223 other isoform, or with tags, fused parts or gaps)": "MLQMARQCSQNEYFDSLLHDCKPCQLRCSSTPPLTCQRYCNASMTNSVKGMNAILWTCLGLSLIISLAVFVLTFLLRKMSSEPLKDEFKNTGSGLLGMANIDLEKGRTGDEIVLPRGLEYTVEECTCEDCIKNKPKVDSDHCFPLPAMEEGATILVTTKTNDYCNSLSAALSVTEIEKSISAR", "assay": "FACS equilibrium titration on 293T cells transiently transfected with cynomolgus BCMA (relative FACS affinity)"}, "[6]": {"molecular_target": "T4, TACI, full length, on transiently transfected cells (human, UniProt O14836 1-293)", "T4 construct": "whole, on cells; also called huTACI", "T4 sequence (looked up)": "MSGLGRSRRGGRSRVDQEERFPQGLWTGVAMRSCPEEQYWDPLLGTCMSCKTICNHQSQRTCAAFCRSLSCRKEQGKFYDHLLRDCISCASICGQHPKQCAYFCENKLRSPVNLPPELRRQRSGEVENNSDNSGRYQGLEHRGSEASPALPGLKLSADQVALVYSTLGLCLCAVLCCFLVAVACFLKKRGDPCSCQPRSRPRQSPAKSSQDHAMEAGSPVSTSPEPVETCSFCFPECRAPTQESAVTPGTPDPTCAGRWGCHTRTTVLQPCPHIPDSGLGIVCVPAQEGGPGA", "assay": "FACS on cells transiently transfected with the full-length receptor; positive if MFI is two times the negative control"}, "[7]": {"molecular_target": "T5, BAFF-R, full length, on transiently transfected cells (human, UniProt Q96RJ3 1-184)", "T5 construct": "whole, on cells; also called huBAFF-R", "T5 sequence (looked up)": "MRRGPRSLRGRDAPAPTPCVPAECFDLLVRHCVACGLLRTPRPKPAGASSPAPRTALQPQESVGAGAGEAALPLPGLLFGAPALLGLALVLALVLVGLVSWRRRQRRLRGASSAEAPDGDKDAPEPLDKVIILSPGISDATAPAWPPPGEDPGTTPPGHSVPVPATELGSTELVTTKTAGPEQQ", "assay": "FACS on cells transiently transfected with the full-length receptor; positive if MFI is two times the negative control"}, "[8]": {"molecular_target": "T2, human BCMA (huBCMA), full length, on …", "assay": "FACS, H929 cells"}, "[9]": {"molecular_target": "T2, human BCMA (huBCMA), full length, on …", "assay": "FACS, H929 cells"}, "[10]": {"molecular_target": "T2, human BCMA (huBCMA), full length, on …", "assay": "FACS, H929 cells"}, "[11]": {"molecular_target": "T6, clipped form of the rhuBCMA fusion protein, SEQ ID NO:356 (human)", "T6 chain": "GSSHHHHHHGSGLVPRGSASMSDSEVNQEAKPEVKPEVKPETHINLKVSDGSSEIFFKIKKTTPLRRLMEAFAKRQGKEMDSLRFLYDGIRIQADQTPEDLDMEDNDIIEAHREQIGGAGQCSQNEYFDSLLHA", "assay": "LC/MS (ESI-TOF, reduced sample) of the SEC-isolated 2A1 + SumoBCMA sample"}, "[12]": {"molecular_target": "T7, clipped form of the rhuBCMA fusion protein, SEQ ID NO:357 (human)", "T7 chain": "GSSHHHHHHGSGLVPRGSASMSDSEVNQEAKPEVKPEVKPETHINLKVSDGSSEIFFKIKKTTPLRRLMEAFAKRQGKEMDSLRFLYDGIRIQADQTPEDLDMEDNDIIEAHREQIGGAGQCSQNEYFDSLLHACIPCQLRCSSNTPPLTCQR", "assay": "LC/MS (ESI-TOF, reduced sample) of the SEC-isolated 2A1 + SumoBCMA sample"}, "[13]": {"molecular_target": "T8, clipped form of the rhuBCMA fusion protein, SEQ ID NO:354 (human)", "T8 construct": "also called Peak A", "T8 chain": "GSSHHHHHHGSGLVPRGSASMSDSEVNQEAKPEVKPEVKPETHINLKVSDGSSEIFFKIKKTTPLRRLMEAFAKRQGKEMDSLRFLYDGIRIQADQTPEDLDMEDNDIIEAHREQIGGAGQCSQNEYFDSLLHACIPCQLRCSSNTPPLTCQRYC", "assay": "LC/MS (ESI-TOF, reduced sample) of the SEC-isolated 2A1 + SumoBCMA sample"}, "[14]": {"molecular_target": "T9, clipped form of the rhuBCMA fusion protein, SEQ ID NO:355 (human)", "T9 chain": "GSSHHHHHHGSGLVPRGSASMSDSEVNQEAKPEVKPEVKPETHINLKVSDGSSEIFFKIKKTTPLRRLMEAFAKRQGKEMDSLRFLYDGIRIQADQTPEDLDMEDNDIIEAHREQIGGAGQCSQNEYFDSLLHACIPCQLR", "assay": "LC/MS (ESI-TOF, reduced sample) of the SEC-isolated 2A1 + SumoBCMA sample"}, "[15]": {"molecular_target": "T10, rhuBCMA fusion protein (6xHis::Sumo::huBCMA(aa 5-51)::GGS::G3::Avi) (human)", "T10 construct": "Monomeric tagged fusion; the entry holds the tags, Sumo and the BCMA part; also called Sumo-BCMA; SumoBCMA", "T10 chain": "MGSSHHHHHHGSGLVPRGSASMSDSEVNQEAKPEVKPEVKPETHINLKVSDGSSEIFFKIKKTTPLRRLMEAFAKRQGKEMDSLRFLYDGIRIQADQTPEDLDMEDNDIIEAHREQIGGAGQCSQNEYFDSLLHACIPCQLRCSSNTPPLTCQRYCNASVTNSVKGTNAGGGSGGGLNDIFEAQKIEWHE", "assay": "size exclusion chromatography (S200 column, PBS, UV trace), 500 ug antibody incubated with 500 ug sumoBCMA"}, "[16]": {"molecular_target": "T2, human BCMA (huBCMA), full length, on …", "assay": "FACS on H929 cells, native BCMA, relative binding, indirect"}, "[17]": {"molecular_target": "T11, rrat BCMA fusion protein (GS::6xHis::Sumo::ratBCMA(aa 2-49)::GGS::G3::Avi) (rat)", "T11 chain": "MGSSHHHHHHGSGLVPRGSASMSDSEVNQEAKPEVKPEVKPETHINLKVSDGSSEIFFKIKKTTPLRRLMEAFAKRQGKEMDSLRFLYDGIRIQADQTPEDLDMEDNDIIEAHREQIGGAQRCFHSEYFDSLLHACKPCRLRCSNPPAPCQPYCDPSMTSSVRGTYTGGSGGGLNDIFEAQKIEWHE", "assay": "Biacore T200 SPR, antibody captured on anti-human IgG, rBCMA fusion as analyte, 25 C"}, "[18]": {"molecular_target": "T10, rhuBCMA fusion protein …", "assay": "Biacore T200 SPR, antibody captured on anti-human IgG, rBCMA fusion as analyte, 25 C, 1:1 model"}, "[19]": {"molecular_target": "T1, recombinant soluble human BCMA (Biacore …)", "assay": "Biacore, recombinant soluble human BCMA; measured on parental 2A1; patent says 2A1CV5 binds identically"}, "[20]": {"molecular_target": "T2, human BCMA (huBCMA), full length, on …", "assay": "FACS on H929 myeloma cells"}, "[21]": {"molecular_target": "T2, human BCMA (huBCMA), full length, on …", "assay": "FACS, H929 cells"}}, "note": "Where a chain is given by its changes, count along the chain named. Names may count otherwise. Where two headings read alike, the source gives them in different places.", "data": [{"binder": "B1", "values": [{"measurement": "Kd", "setting": "[1]", "value": 36.1, "unit": "nM"}]}, {"binder": "B2", "values": [{"measurement": "ADCC EC50, calcein-AM labelled H929 target cells", "setting": "[2]", "value": 0.076, "unit": "µg/mL"}, {"measurement": "Kd", "setting": "[3]", "value": 0.113, "unit": "nM"}, {"measurement": "Kd", "setting": "[4]", "value": 2.8, "unit": "nM"}, {"measurement": "Kd", "setting": "[5]", "value": "> 100", "unit": "nM"}, {"measurement": "binding result", "setting": "[6]", "value": "no binding"}, {"measurement": "binding result", "setting": "[7]", "value": "no binding"}]}, {"binder": "B3", "values": [{"measurement": "ADCC EC50, calcein-AM labelled H929 target cells", "setting": "[2]", "value": 0.011, "unit": "µg/mL"}, {"measurement": "EC50 (read off the curve)", "setting": "[8]", "value": "~0.2", "unit": "µg/mL"}, {"measurement": "EC50 (read off the curve)", "setting": "[9]", "value": "~0.1", "unit": "µg/mL"}, {"measurement": "EC50 (read off the curve)", "setting": "[10]", "value": "~0.3", "unit": "µg/mL"}, {"measurement": "Kd", "setting": "[3]", "value": 0.027, "unit": "nM"}, {"measurement": "binding result", "setting": "[11]", "value": "binds"}, {"measurement": "binding result", "setting": "[12]", "value": "binds"}, {"measurement": "binding result", "setting": "[13]", "value": "binds"}, {"measurement": "binding result", "setting": "[14]", "value": "binds"}, {"measurement": "Kd", "setting": "[4]", "value": 1.1, "unit": "nM"}, {"measurement": "Kd", "setting": "[5]", "value": 0.905, "unit": "nM"}, {"measurement": "binding result", "setting": "[15]", "value": "binds"}, {"measurement": "binding result", "setting": "[6]", "value": "no binding"}, {"measurement": "binding result", "setting": "[7]", "value": "no binding"}]}, {"binder": "B4", "values": [{"measurement": "EC50", "setting": "[16]", "value": 1.2, "unit": "nM"}, {"measurement": "Kd", "setting": "[17]", "value": "> 10", "unit": "nM"}, {"measurement": "Kd", "setting": "[18]", "value": 0.155, "unit": "nM"}, {"measurement": "Kd", "setting": "[19]", "value": 0.027, "unit": "nM"}]}, {"binder": "B5", "values": [{"measurement": "binding result", "setting": "[20]", "value": "binds"}]}, {"binder": "B6", "values": [{"measurement": "binding result", "setting": "[21]", "value": "binds"}]}]}
